# Test: yeast display, Sf9 membrane polyspecificity reagent, FACS + sequencing; frameworks hold sequencing errors
# Procedure, shortened: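 Galactose induction of a Saccharomyces cerevisiae BJ5465 synthetic nanobody display library ran 36–48 hours. The cells were then stained for 1 hour at 4 °C with 10% biotinylated, detergent-solubilized Sf9 membrane reagent, pulled down on streptavidin microbeads and FACS-sorted into low and high (top ~1%) gates on expression and reagent-binding fluorescence. Labels for polyreactivity follow the gate of origin.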
row,Sequence,polyreactivity (PSR sort gate)
1,QVQLVESGGGLVQAGGSLRLSCAASGRTFVSNAMGWYRQAPGKERELVAAINSGGSTTYADSVKGRFTISRDNAKNTVYLKMNSLIPEDTAVYYFARRSRYSKGYDYWGQGTQVTVSS,low polyreactivity
2,QVQLVESGGGLVQAGGSLRLSCAASGRTFVSYVMGWYRQAPGKERAFVAAISRSGGNTYYADSVKGRFTMSRDNAKNTVYLQMNSLKPEDTAVDYCAAKLGPLVYDHDYWGQGTQVTVSS,high polyreactivity
3,QVQLVESGGGLVQAGGSLRLSCAASGRTFVTNAMGWYRQAPGKERELVATINWSGGRTHYADSVKGRFTISRDNAKNTVYLQMNSLKPEDTEVYYCAKASSRRYWTIRDGDYWGQGTQVTVSS,low polyreactivity
4,QVQLVESGGGLVQAGGSLRLSCAASGRTFVVKAMGWYRQAPGKERELVAAITRRGGITYYADSVKGRITISRDNAKNTVYLQMNSLKPEDTAVSYCAADRSYYPDTRTTSGYNYWGQGTQVTVSS,low polyreactivity
5,QVQLVESGGGLVQAGGSLRLSCAASGRTFVVNYMGWYRQAPGKERELVATINVSGGSTSYADSVKGRFTISRDNAKNTVYLQMNSLKPEDTAVYYCNVDTYVEYPHDYWGQGTQVTVSS,low polyreactivity
6,QVQLVESGGGLVQAGGSLRLSCAASGRTFVVYAMGWYGQAPGKERELVAGITTRVGSTYYADSVKGRFTISRDNAKNTVYLQMNSLKPEDTAVYYCAARGSRYVGRVRYDYWGQGTQVTVSS,high polyreactivity
7,QVQLVESGGGLVQAGGSLRLSCAASGRTFVVYAMGWYRQAPGKERELVAAISGRGGRTYYADSVKGRFTISRDNAKNTVYLQMNSLKPEETAVYYCATRSSVPKRFTRYGYWGHGTQVTVSS,high polyreactivity
8,QVQLVESGGGLVQAGGSLRLSCAASGRTFVVYAMGWYRQAPGKERELVAVISFTGDSTFYADSVKGRFTISRDNAKNTVYLQMNSLKPEDTAVYYCAADLDWSPHFGLPYDYWGQGTQVTVSS,low polyreactivity
9,QVQLVESGGGLVQAGGSLRLSCAASGRTFVVYAMGWYRQAPGKERELVAVISFTRDSTFYADSVKGRFTISRDNAKNTVYLQMNSLKPEDTAVYYCAADFRRVFSKYSYYLYFEFDYWGQGTQVTVSS,low polyreactivity
10,QVQLVESGGGLVQAGGSLRLSCAASGRTFVVYTMGWYRQAPGKERELVAAISWRGGTTYYADSVKGRFTISRDNAKNTVYLQMNSLKPEDTAVYYCAARVVYYYRERYYWGQGTQVTVSS,high polyreactivity
11,QVQLVESGGGLVQAGGSLRLSCAASGRTFVWNVMGWYRKAPGKEREFVAAISGGSTYYADSVKGRFTISRDNAKNTVYLQMNRLKPEDTAVNYCAAASKLHPRYEYWGQGTQVTVSS,low polyreactivity
12,QVQLVESGGGLVQAGGSLRLSCAASGRTFVYNAKGWYRQAPGKEREVVAGITGSGDSTYYADSVKGRFTISRDNAKNTVYLQMNSLKPEDTAVYYCNQLVEEDYWGQGTQVTVSS,low polyreactivity
13,QVQLVESGGGLVQAGGSLRLSCAASGRTFVYNAMGWYRQAPGKERELVAAIDGGGDRTYYADSVKGRFTISRDNAKNTVYLQMNSLKPEDTAVYYCARDPVVTYYYSYPEGDYWGQGTQVTVSS,low polyreactivity
14,QVQLVESGGGLVQAGGSLRLSCAASGRTFVYNAMGWYRQAPGKERELVAAIRFSGGRTYYADSVKGRFTISRDNAKNTVYLQMNSLKPEDTAVYYCAVTGELTLYTWRSFEYYYWGQGTQVTVSS,low polyreactivity
15,QVQLVESGGGLVQAGGSLRLSCAASGRTFVYNAMGWYRQAPGKERELVAAISSSGGSTRYADSVKGRFTISRDNAKNTVYLQMNSLKPEDTAVYYCNRLRYSNRYDTWGQGTQVTVSS,high polyreactivity
16,QVQLVESGGGLVQAGGSLRLSCAASGRTFVYTMGWYRQAPGKERELVAAIRYSGGRTYYADSVKGRFTISRDNAQNTVYLQMNSLKPEDTAVYYCAARNYATGVRYDYWGQVTQVTVSS,high polyreactivity
17,QVQLVESGGGLVQAGGSLRLSCAASGRTFVYYAMAWYRQAPGKERELVAAISRTGVNTYYADSVKGRFTISRDNAKNTVYLQMNSQKPEDTAVYYCNKVYRADRSSVPYEYWGQGTQVTVSS,high polyreactivity
18,QVQLVESGGGLVQAGGSLRLSCAASGRTFVYYAMGWYRQAPGKEREFVATITSSGGSTYYADSVKGRFTISRDNAKNTVYLQMNSLKPEDTAVYYCNADSVSSPPYYDYWGQGTQVTVSS,high polyreactivity
19,QVQLVESGGGLVQAGGSLRLSCAASGRTFVYYAMGWYRQAPGKERELVAAIRSGGSTNYADSVKGRFTISRDNAKNTVYLQMNSLKPEDTAVYYCNAVHYYYYKGDYWGQGTQVTVSS,high polyreactivity
20,QVQLVESGGGLVQAGGSLRLSCAASGRTFVYYAMGWYRQAPGKERELVAAISGSGGSTYYADSVKGRFTISRDNAKNTVYLQMNSLKPEDTAVYYCNVRGPGFYWNWGQSHYYGYDYWGQGTQVTVSS,high polyreactivity
21,QVQLVESGGGLVQAGGSLRLSCAASGRTFVYYAMGWYRQAPGKERELVAAITSGGNTYYADSVKGRFTISRDNAKNTDYLQMNSLKPEDTAVYYCAAKRRRSFDYWGQGTQVTVSS,high polyreactivity
22,QVQLVESGGGLVQAGGSLRLSCAASGRTFVYYAMGWYRQAPGKERELVARISSSGGRTSYADSVKGRFTISRDNAKNTVYLQMNRLKPEDTAVYYCNAGRYRAGGWGVGEGYWGQGTQVTVSS,high polyreactivity

row,Sequence,polyreactivity (PSR sort gate)
1,QVQLVESGGGLVQAGGSLRLSCAASGRTFVYYDMGWYRQAPGKERELVASISSGDSTNYADSVKGRFTISRDNAKNTVYLQMNSLKPEDTAVYDCAARGYLRGEQLYVFIRYDYWGQGTQVTVSS,low polyreactivity
2,QVQLVESGGGLVQAGGSLRLSCAASGRTFVYYTMGWYRQAPGKERELVAGIRRRGGRTYYADSVKGRFTISRDNAKNTVYLQMNSLKPEDTAVYYCAAQTRYQGYQEYYYWGQGTQVTVSS,high polyreactivity
3,QVQLVESGGGLVQAGGSLRLSCAASGRTFWFNHMGSYRQAPGKERELVAAITWNGGSTYYADSVKGRFTISRDNAKNTVYLQMNSLKPEATAVYYCARTSYARYRNGWTYDHWGQGTQVTVSS,low polyreactivity
4,QVQLVESGGGLVQAGGSLRLSCAASGRTFWGYGMGWYRQAPGKERELVATISSGGSTYYADSVKGRFTISRDNAKNTVYLQMNSLKPEDTAVYYCAARPPRTYWRYQSDYWGQGTQVTVSS,high polyreactivity
5,QVQLVESGGGLVQAGGSLRLSCAASGRTFWKYAMGWYRHAPGKERELVAAITDDDSTDYADSVKGRFTISRDNAKNTVYLQMNSLKPEDTAVYYCNADSSRYYRALEYWGQGTQVTVSS,low polyreactivity
6,QVQLVESGGGLVQAGGSLRLSCAASGRTFWKYVMGWYRQAPGKERELVAVISRPAGSTYYADSVKGRFTISRDNAKNTVYLQMNSLKPEDTAVYYCAKRPKNKPVLGDYDQWGQGTQVTVSS,low polyreactivity
7,QVQLVESGGGLVQAGGSLRLSCAASGRTFWNAMGWYRQEPGKERELVATITSGGITNYADSVKGRFTISRDNAKNTVYLQMNSLKPEDTAVYYCAARPYTWRNFRPSDYWGQGTQVTVSS,high polyreactivity
8,QVQLVESGGGLVQAGGSLRLSCAASGRTFWNYAKGWYRQAPGNERELVAVIRFSDGSTYYADSVKGRFTISRDNAKNTVYLQMNSLKPEDTAVYYCAAKGPRRWGSGFDYWGQGTQVTVSS,low polyreactivity
9,QVQLVESGGGLVQAGGSLRLSCAASGRTFWNYAMGWYRQAPGKERELVAVIRFSDVSTYYADSVKGRFTISRDNAKNTVYLQMNSLKPEDTAVYYCAAKGPRRWGSGFDYWGLGTQVTVSS,low polyreactivity
10,QVQLVESGGGLVQAGGSLRLSCAASGRTFWPYAMGWYRQAPGKERELVAAISTSGGSTYYADSVKGRFTISRDNAKNTVYLQMNSLKPEDTAVYYCAAYSTLTPAYEYWGQGTQVTVSS,high polyreactivity
11,QVQLVESGGGLVQAGGSLRLSCAASGRTFWRNAMGWYRQAPGKERELVAAINSGGRTYYADSVKGRFTISRDNAKNTVYLQMNSLKPEDTAVYYCAVYVHRFLDGRVRSYRGDYWGQGTQVTVSW,high polyreactivity
12,QVQLVESGGGLVQAGGSLRLSCAASGRTFWRNAMGWYRQAPGKERELVAAISSSGDRTYYADSVKGRFTISRDNAKNTVYLQMNSLKPEDTAVYYCAARTFWGAYDYWGQGTQVTVSS,high polyreactivity
13,QVQLVESGGGLVQAGGSLRLSCAASGRTFWSNAMGWYRPAPGKERELVAAITWSGGSTSYADSVKGRFTISRDNAKNTVYLQMNSLKPEDTAVYYCAAGKGVELAKLDYWGQGTQVTVSS,low polyreactivity
14,QVQLVESGGGLVQAGGSLRLSCAASGRTFWSNAMGWYRQAPGKERELVAAISTGAGSTYYADSVKGRFTISRDNAKNTVYLQMNSLKPEDTAVYYCAAVYNGALYNYYYWGEGTQVTVSS,high polyreactivity
15,QVQLVESGGGLVQAGGSLRLSCAASGRTFWSYAMGWYRQAPGKEREFVAAISRRGGITYYADSVKGRFTLSRDNAKNTVYLQMNSLKPEDTAVYYCAKGAQSYYGGQVKYDYWGQGTQVTVSS,high polyreactivity
16,QVQLVESGGGLVQAGGSLRLSCAASGRTFWSYAMGWYRQAPGKERELVAAINSSGDSTYYADSVKGRFTISRDNAKNTVYLQMNSLKPEDTAVYYCAADGGLLAGSDATVRMDYWGQGTQVTVSS,low polyreactivity
17,QVQLVESGGGLVQAGGSLRLSCAASGRTFWSYAMGWYRQAPGKVRELVAAITSSGGTTNYADSVKGRFTISRDNAKNTVYLQMNSLKPEDTAVYYCAADNGGAGYYYGYVWYDYWGQGTQVTVSS,low polyreactivity
18,QVQLVESGGGLVQAGGSLRLSCAASGRTFWTYTLGWYRQAPGKEREFVAAITFGDGSTSYADSVKGRFTISRDNAKNTVYLQMNSLKPEDTAVYYCAAADQVGQEDDYWGQGTQVTVSS,low polyreactivity
19,QVQLVESGGGLVQAGGSLRLSCAASGRTFWTYTMGWYRQAPGKEREFVAAITFGDGSTSYADSVKGRFTISRDNAKNTVYFQMNSLKPEDTAVYYCAKRWRRRFVDVWSLYDYWGQGTQVTVSS,low polyreactivity
20,QVQLVESGGGLVQAGGSLRLSCAASGRTFWVYAMGRYRQAPGKEREFVAAISSNGDRTYYADSVKGRFTISRDNAKNTVYLQMNSLKPEDTAVYYCNSRKQYRYLADRMDYWGQGTQVTVSS,high polyreactivity
21,QVQLVESGGGLVQAGGSLRLSCAASGRTFWWYAMGWYRQAPGKERELVATINVSGGSTYYADSVKGRFTISRDNAKNTVYFQINSLKPEDTAVYYCNKRGFYTPSVSYDYWGQGTQVTVSS,low polyreactivity
